# Test results published in PMC6215446, “High-level expression and molecular characterization of a recombinant prolidase from Escherichia coli NovaBlue” (PeerJ, 2018).
# Experiments:
# [1] = tested on: C[C@H](N)C(=O)N1CCC[C@H]1C(=O)O; assay: proline release, ninhydrin colorimetric assay; Lineweaver-Burk; type: biochemical, Escherichia coli; conditions: 0.1 mM Mn2+, 25 mM Tris-HCl pH 8.0, 60 °C, 10 min, substrate 0.2-14.2 mM
# [2] = target: the molecule itself; assay: SEC; gel filtration on Superdex 200 HiLoad 16/60, 25 mM Tris-HCl buffer (pH 8.0) with 10 mM Mg(OAc)2 and 2 mM DTT; calibrated with thyroglobulin, aldolase, ovalbumin, ribonuclease A; apparent molecular mass of the native form
Molecule,Km [1] [mM],kcat [1] [s⁻¹],stoichiometry N [2]
EcPepQ (Escherichia coli K-12),8.8 ± 1.1,926.5 ± 2.0,–
"Escherichia coli NovaBlue prolidase (EcPepQ), His6-tagged (enzyme, UniProt P21165 1-443, looked up, Prolidase (Xaa-Pro dipeptidase) PepQ of E. coli NovaBlue; residue number of 443 printed; Cloned BamHI/HindIII into pQE-30; also called Xaa-Pro dipeptidase; recombinant enzyme; source: E. coli M15 (pQE-EcPepQ), IPTG-induced, purified (Ni-NTA); not shown: His6, N-terminal, kept) MESLASLYKNHIATLQERTRDALARFKLDALLIHSGELFNVFLDDHPYPFKVNPQFKAWVPVTQVPNCWLLVDGVNKPKLWFYLPVDYWHNVEPLPTSFWTEDVEVIALPKADGIGSLLPAARGNIGYIGPVPERALQLGIEASNINPKGVIDYLHYYRSFKTEYELACMREAQKMAVNGHRAAEEAFRSGMSEFDINIAYLTATGHRDTDVPYSNIVALNEHAAVLHYTKLDHQAPEEMRSFLLDAGAEYNGYAADLTRTWSAKSDNDYAQLVKDVNDEQLALIATMKAGVSYVDYHIQFHQRIAKLLRKHQIITDMSEEAMVENDLTGPFMPHGIGHPLGLQVHDVAGFMQDDSGTHLAAPAKYPYLRCTRILQPGMVLTIEPGIYFIESLLAPWREGQFSKHFNWQKIEALKPFGGIRIEDNVVIHENNVENMTRDLKLA",–,–,2
